Source: EP3620472A1 (Sanofi, dated 2020)
Where “and” joins values, the source holds several entries; their conditions need not be identical. Identical values can stand only once. Like-named read-outs stand apart in the source and are kept apart here.

Tests used:
endogenous human PAI-1 [1] = molecular target: T1, endogenous human PAI-1 (human, UniProt P05121 24-402); test: cell-based or functional assay
endogenous human PAI-1 [2] = molecular target: T1, endogenous human PAI-1; test: cell-based or functional assay; remark: listed apart in the source
cynomolgus PAI-1 [3] = molecular target: T2, cynomolgus PAI-1 (cynomolgus (Macaca fascicularis), UniProt P05121 24-402 (human entry)); test: cell-based or functional assay
human PAI-1 [4] = molecular target: T3, human PAI-1 (human, UniProt P05121 24-402); test: cell-based or functional assay
[5] = molecular target: T4, glycosylated human PAI-1 (active form) (human, UniProt P05121 24-402, glycosylated (sites not given)); test: cell-based or functional assay
[6] = molecular target: T4, glycosylated human PAI-1 (active form); test: cell-based or functional assay; remark: listed apart in the source
cynomolgus PAI-1 [7] = molecular target: T2, cynomolgus PAI-1; test: value used to set up the HDX MS samples
[8] = molecular target: T4, glycosylated human PAI-1 (active form); test: cell-based or functional assay; remark: listed apart in the source
endogenous human PAI-1 [9] = molecular target: T1, endogenous human PAI-1; test: cell-based or functional assay; remark: listed apart in the source
[10] = molecular target: T4, glycosylated human PAI-1 (active form); test: Biacore 2000, mAb captured, single-cycle kinetics
[11] = molecular target: T4, glycosylated human PAI-1 (active form); test: cell-based or functional assay; remark: listed apart in the source
human PAI-1 [12] = molecular target: T3, human PAI-1; test: Biacore supernatant screen, graded off-rate

B1: A44-hv11 (antibody, V domains shown)
VH: QMTLKESGPTLVKPTQTLSLTCSVSGDSMTNGYWNWIRQFPGKALEYMGYITYSGSTYYNPSLKGRITITRDTSKNQYYLTLSSVTTVDTATYYCARWHYGSPYYFDYWGQGTTLTVSS
VL: DIKMTQSPSSLSASVGDRVTITCKASQDINSYLSWLQQKPGKSPKTLIYRAQRSVEGVPSRFSGSGSGQDYSLTISSLQPEDLGIYYCLQYDEFPPTFGGGTKLEIK
notes: constant regions only as pictures; also called A44V11; A44v11
human liver lysate, uPA-PAI-1 ELISA IC50 (endogenous human PAI-1 [1]): 0.0365 nM and 0.0503 nM and 0.0465 nM | human liver lysate, uPA-PAI-1 ELISA IC50, mean (endogenous human PAI-1 [1]): 0.0444 nM | uPA-PAI-1 complex ELISA IC50 (endogenous human PAI-1 [2]): 0.0157 nM | uPA-PAI-1 complex ELISA Y50% (endogenous human PAI-1 [2]): 37.5% | Cyno PAI-1 neutralization IC50 (cynomolgus PAI-1 [3]): 0.0424 nM | Cyno PAI-1 neutralization Y50% (cynomolgus PAI-1 [3]): 50.8% | uPA-PAI-1 complex ELISA IC50 (human PAI-1 [4]): 0.131 nM | uPA-PAI-1 complex ELISA Y50% (human PAI-1 [4]): 50.8% | human plasma clot lysis IC50 [5]: 1.38 nM | human plasma clot lysis Imax @ 100 nM [5]: 113% | human plasma clot lysis IC50 [6]: 2 nM | Kd (cynomolgus PAI-1 [7]): < 0.05 nM

B2: A44-hv13 (antibody, V domains shown)
VH: QMQLQESGPGLVKPSETLSLTCTVSGDSMTNGYWNWIRQPPGKGLEYMGYITYSGSTYYNPSLKSRITISRDTSKNQYSLKLSSVTAADTAVYYCARWHYGSPYYFDYWGQGTLVTVSS
VL: DIKMTQSPSSLSASVGDRVTITCKASQDINSYLSWLQQKPGKSPKTLIYRAQRSVEGVPSRFSGSGSGQDYSLTISSLQPEDLGIYYCLQYDEFPPTFGGGTKLEIK
uPA-PAI-1 complex ELISA IC50 (endogenous human PAI-1 [2]): 0.0311 nM | uPA-PAI-1 complex ELISA Y50% (endogenous human PAI-1 [2]): 61.4% | Cyno PAI-1 neutralization IC50 (cynomolgus PAI-1 [3]): 0.0281 nM | Cyno PAI-1 neutralization Y50% (cynomolgus PAI-1 [3]): 52.8% | uPA-PAI-1 complex ELISA IC50 (human PAI-1 [4]): 0.166 nM | uPA-PAI-1 complex ELISA Y50% (human PAI-1 [4]): 52.8%

B3: A44-hv14 (antibody, V domains shown)
VH: QMQLQESGPGLVKPSETLSLTCTVSGDSMTNGYWNWIRQPPGKGLEYMGYITYSGSTYYNPSLKSRITISRDTSKNQYSLKLSSVTAADTAVYYCARWHYGSPYYFDYWGQGTLVTVSS
VL: DIKMTQSPSSLSASVGDRVTITCKASQDINSYLSWLQQKPGKSPKTLIYRAQRSVEGVPSRFSGSGSGQDYSLTISSLQPEDLATYYCLQYDEFPPTFGGGTKLEIK
uPA-PAI-1 complex ELISA IC50 (endogenous human PAI-1 [2]): 0.0586 nM | uPA-PAI-1 complex ELISA Y50% (endogenous human PAI-1 [2]): 73.9% | Cyno PAI-1 neutralization IC50 (cynomolgus PAI-1 [3]): 0.0287 nM | Cyno PAI-1 neutralization Y50% (cynomolgus PAI-1 [3]): 52.5% | uPA-PAI-1 complex ELISA IC50 (human PAI-1 [4]): 0.0563 nM | uPA-PAI-1 complex ELISA Y50% (human PAI-1 [4]): 52.5%

B4: A44-hv12 (antibody, V domains shown)
VH: QMTLKESGPTLVKPTQTLSLTCSVSGDSMTNGYWNWIRQFPGKALEYMGYITYSGSTYYNPSLKGRITITRDTSKNQYYLTLSSVTTVDTATYYCARWHYGSPYYFDYWGQGTTLTVSS
VL: DIKMTQSPSSLSASVGDRVTITCKASQDINSYLSWLQQKPGKSPKTLIYRAQRSVEGVPSRFSGSGSGQDYSLTISSLQPEDLATYYCLQYDEFPPTFGGGTKLEIK
uPA-PAI-1 complex ELISA IC50 (endogenous human PAI-1 [2]): 0.00335 nM | uPA-PAI-1 complex ELISA Y50% (endogenous human PAI-1 [2]): 37.7% | Cyno PAI-1 neutralization IC50 (cynomolgus PAI-1 [3]): 0.0266 nM | Cyno PAI-1 neutralization Y50% (cynomolgus PAI-1 [3]): 53.5% | uPA-PAI-1 complex ELISA IC50 (human PAI-1 [4]): 0.114 nM | uPA-PAI-1 complex ELISA Y50% (human PAI-1 [4]): 53.5%

B5: C45 (antibody, mouse IgG2b, V domains shown)
VH: QVQLQQSGVELVRPGTSVKVSCKASGYAFTNYLIEWIKQRPGQGLEWIGVIHPGSGVTNYNEKFKGKAILTADKSSSTAYMQLSSLTSDDSAVYFCARDYYGSSHGLMDYWGQGTSVTVSS
VL: DIKMTQSPSSMYASLGERVTITCKASQDINSYLSWFQQKPGKSPKTLIYRANRLVDGVPSRFSGSGSGQDYSLTISSLEYEDMGIYYCLQYDEFPRTFGGGTKLEIK
plasmin generation, IC50abs [8]: 6.5 nM | plasmin generation, Imax [8]: 97%

B6: APG (antibody, V domains shown)
VH: QVKLQESGPELVKPGASVKISCKASGYSFTDYNMNWVKQSKGKSLEWIGIIHPNSGTTTYNQKFKGKATLTVDQSSSTAYLQLNSLTSEDSAVYYCARSKLRFFDYWGQGTTVTVSS
VL: DIKLTQSPSSMYASLGERVTITCKASQDIYSYLSWFQQKPGKSPKTLIYRANRLIDGVPSRFSGSGSGQDYSLTISSLEYEHMGIYYCLQYDEFPFTFGSGTKLEIK
notes: mouse antibody; also called mAPG; mouse APG
human plasma clot lysis IC50 [5]: 2.34 nM | human plasma clot lysis Imax @ 100 nM [5]: 123% | human plasma, uPA-PAI-1 ELISA IC50abs (endogenous human PAI-1 [9]): 1.81 nM | human plasma, uPA-PAI-1 ELISA Imax (endogenous human PAI-1 [9]): 89.7% | kon [10]: 3.82e+06 M⁻¹ s⁻¹

B7: A44 (antibody, mouse IgG1, V domains shown)
VH: EMQLQESGPSLVKPSQTLSLTCSVTGDSMTNGYWNWIRKFPGNKLEYMGYITYSGSTYYNPSLKGRISITRNTSKNQYYLQLSSVTTEDTATYYCARWHYGSPYYFDYWGQGTTLTVSS
VL: DIKMTQSPSSMYASLGERVTITCKASQDINSYLSWLQQKPGKSPKTLIYRANRSVDGVPSRFSGSGSGQDYSLTISSLEYEDMGIYYCLQYDEFPPTFGGGTKLEIKR
plasmin generation, IC50abs [8]: 3.32 nM | plasmin generation, Imax [8]: 97%

B8: E16 (antibody, mouse IgG1, V domains shown)
VH: EVKLVESGGGLVKPGGSLKLSCAASGFTFSNYGMSWVRQTPEKGLGWVASLRTGGNTYYSDSVKGRFTISRDNDRNILYLQMSSLTSEDTAVYYCARGLRHWGYFDVWGAGTTVTVSS
VL: DIVMTQSHKFMSTSVGDRVNITCKASQDVSTAVGWYQQEPGQSPKLLIYSASNRHTGVPDRFTGSGSGTDFTFTISSVQAEDLAVYYCQQHYSSPWTFGGGTKLEIK
plasmin generation, IC50abs [8]: 4.74 nM | plasmin generation, Imax [8]: 95%

B9: A71 (antibody, mouse IgG1, V domains shown)
VH: QVQLQQSGAELMKPGASVKISCKATGFTFSTYWIEWIKQRPGHGLDWIGEILPGSGNTNYNEKFKGKATFTADTSSNTVYMQLSSLTSEDSAVYYCARGGLYYNLDSWGQGTTLTVSS
VL: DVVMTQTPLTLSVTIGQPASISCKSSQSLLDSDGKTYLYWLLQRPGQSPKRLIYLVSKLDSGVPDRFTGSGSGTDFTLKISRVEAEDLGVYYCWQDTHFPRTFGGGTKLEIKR
plasmin generation, IC50abs [8]: 8.61 nM | plasmin generation, Imax [8]: 90%

B10: A105 (antibody, mouse IgG1, V domains shown)
VH: QVQLQQSGAELMKPGASVKISCKATGFTFSIYWIEWVKQRPGLGLEWIGEILPGSGSTNYNEKFKGKATFTADTSSNTAFMQLSSLTSEDSAVYYCARGGLYYDLDYWGQGTILTVSS
VL: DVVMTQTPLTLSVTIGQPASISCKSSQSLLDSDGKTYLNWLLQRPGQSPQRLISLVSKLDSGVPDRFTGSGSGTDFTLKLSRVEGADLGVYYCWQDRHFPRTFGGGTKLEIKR
plasmin generation, IC50abs [8]: 27 nM | plasmin generation, Imax [8]: 88%

B11: B109 (antibody)
chain 1: SGQGLDWIGAIYPGNSDTTYNQKFEDKAKLTAVASASTAYMEVSSLTNEDSAVYYCTRGLRRWGAMDYWGQGTSVTVSS
chain 2: DIVMTQSHKFMSTSAGDRVSIPCKASQDVSSAVAWYQQKLGQSPKLLIYSASFRYTGVPDRFTGSGSGTDFTFTISSVQAEDLAVYYCQQHYSSPYTFGGGTNLEIK
Chromogenic Assays [11]: 0.23 nM | plasmin generation, IC50abs [8]: 6.11 nM | plasmin generation, Imax [8]: 94% | koff (human PAI-1 [12]): ≤ 0.0001 s⁻¹

B12: B28 (antibody, mouse IgG2b, V domains shown)
VH: QVQLQQSGAELMKPGASVKISCKATGYTFSISWIEWIKQRPGGLEWIGKILPGSGGANYNEKFKGKATVTADTSSNTVYMQLSSLTSEDSAVYYCARLSTGTRGAFDYWGQGTTLTVSS
VL: DIQLTQSPASLSASVGATVTITCRASENVYSYLAWYQQKQGKSPQLLVYNAKTLAEGVPSRFSGSGSGTQFSLKINYLQPEDFGSYYCQHHYGTPPTFGGGTKVEIKR
plasmin generation, IC50abs [8]: 7.28 nM | plasmin generation, Imax [8]: 90%

B13: APGv2 (antibody, V domains shown)
VH: QVQLVQSGSELKKPGASVKVSCKASGYSFTDYNMNWVRQAPGQGLEWIGIIHPNSGTTTYNQKFKGRAVLSVDQSVSTAYLQISSLKAEDTAVYYCARSKLRFFDYWGQGTLVTVSS
VL: DIQLTQSPSSLSASVGDRVTITCKASQDIYSYLSWFQQKPGKAPKTLIYRANRLIDGVPSRFSGSGSGQDYTFTISSLQPEDIATYYCLQYDEFPFTFGQGTKLEIK
notes: humanized; also called APG variant 2
human plasma clot lysis IC50 [5]: 2.08 nM | human plasma clot lysis Imax @ 100 nM [5]: 114% | human plasma, uPA-PAI-1 ELISA IC50abs (endogenous human PAI-1 [9]): 0.962 nM | human plasma, uPA-PAI-1 ELISA Imax (endogenous human PAI-1 [9]): 94.5% | Kd (cynomolgus PAI-1 [7]): < 0.05 nM | kon [10]: 6.58e+06 M⁻¹ s⁻¹

B14: APGv4 (antibody, V domains shown)
VH: QVQLVQSGAEVKKPGASVKVSCKASGYSFTDYNMNWVRQAPGQGLEWIGIIHPNSGTTTYNQKFKGRATLTVDQSTSTAYMELSSLRSEDTAVYYCARSKLRFFDYWGQGTLVTVSS
VL: DIQLTQSPSSLSASVGDRVTITCKASQDIYSYLSWFQQKPGKAPKTLIYRANRLIDGVPSRFSGSGSGQDYTFTISSLQPEDIATYYCLQYDEFPFTFGQGTKLEIK
notes: humanized; also called APG variant 4
human plasma clot lysis IC50 [5]: 2.82 nM | human plasma clot lysis Imax @ 100 nM [5]: 116% | human plasma, uPA-PAI-1 ELISA IC50abs (endogenous human PAI-1 [9]): 1.28 nM | human plasma, uPA-PAI-1 ELISA Imax (endogenous human PAI-1 [9]): 94.4% | kon [10]: 9.48e+06 M⁻¹ s⁻¹
